The target in assay [1] is T1, platelet factor 4 (PF-4) in Cynomolgus monkey plasma (Cynomolgus monkey (Macaca fascicularis), UniProt A0A7N9D5L6 32-101).
T1 construct: Endogenous protein of the plasma; detected with rabbit polyclonal anti-HPF4 (Abcam ab9561); also called CXCL4
T1 sequence: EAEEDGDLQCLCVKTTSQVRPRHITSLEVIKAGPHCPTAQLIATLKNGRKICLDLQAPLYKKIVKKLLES
Put plainly: sandwich ELISA (E1), cynomolgus plasma; AUC of reference anti-HPF4 antibody (ab49735) against AUC of this antibody. In general terms: ELISA stands for enzyme-linked immunosorbent assay.

Assay [2] deals with T2, human platelet factor 4 (PF-4) in HPF4-spiked human plasma (human).
T2 construct: Human EDTA plasma pool (4 donors) spiked with 10 ng/ml human PF4 (Molecular Innovation cat. no. HPF4); also called human PF4; CXCL4
The experiment in a line: sandwich ELISA (E2), HPF4-spiked human plasma; AUC of reference anti-HPF4 antibody (ab49735) against AUC of this antibody.

In assay [3] the target is T1, platelet factor 4 (PF-4) in Cynomolgus …. Put plainly: sandwich-ELISA: antibody coated on the plate, dilution series of cynomolgus plasma, bound PF-4 detected (OD450nm).
Assay [4] has the same target. The experiment in a line: aligned sandwich ELISA (E3), cynomolgus plasma; AUC of reference anti-HPF4 antibody (ab49735) against AUC of this antibody. How it is done:
(§1) Then 10 μl 10 mg/ml trypsin inhibitor in H₂O were added. After incubation for 10 min at room temperature the sample was filtrated through a 0.22 μm filter (Millipore cat. no. SLGS0250S).
(§2) Procedure used: [0437] 1. 100 μl of the respective aligning antibody solution (anti-human IgG for experiment E3; anti-murine IgG for reference experiment R3) per well were applied and incubated overnight at 4° C. [0438] 2. The antibody solution was discarded and the wells were washed three times with 250 μl PB ST-buffer. [0439] 3. 265 μl blocking solution per well were added and incubated 2 h at room temperature. [0440] 4. The blocking solution was discarded and the wells were washed three times with 250 μl PBST buffer. [0441] 5. After preparation of the dilution series of each binding antibody, 100 μl per well of these antibody dilutions were applied to the plate. The plate was incubated 2 h at room temperature. [0442] 6. […] Plate colour was monitored during development (5-15 min at ambient temperature) and the reaction was terminated by adding 50 μl/well of stop solution when an appropriate colour had developed. […] The absorbance was read at 450 nm.
(§3) Data analysis was performed as described for sandwich-ELISA with cynomolgus plasma in Example 3.1, except that not plasma dilution factors but the amounts of antibody (expressed in ng/ml) were used as X-values and thus concentration effect curves were calculated.

The target of assay [5] is T2, human platelet factor 4 (PF-4) in …. The experiment in a line: aligned sandwich ELISA (E4), HPF4-spiked human plasma; AUC of reference anti-HPF4 antibody (ab49735) against AUC of this antibody.
In assay [6] the target is T1, platelet factor 4 (PF-4) in Cynomolgus …. The experiment in a line: aligned sandwich ELISA (E3), cynomolgus plasma; AUC was 0, ratio could not be calculated. The procedure:
as §1, §2, §3

Assay [7] has as its target T3, Aβ(20-42) globulomer (human).
T3 construct: Range counted on the Aβ peptide; also called amyloid-beta (20-42) globulomer
T3 peptide: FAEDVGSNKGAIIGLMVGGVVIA
Put plainly: SPR (BIAcore); antibody captured on goat anti-human IgG Fc, soluble globulomer injected; lot #1759119, average. How it is done:
(§4) Interaction of the purified humanized antibodies 4D10hum#1 and 4D10hum#2 to Aβ(20-42) globulomer was evaluated by surface plasmon resonance (SPR) analysis using a BIAcore device. Goat anti-human IgG Fc (10,000 RU) was directly immobilized on a CMS sensor chip by an amine coupling procedure according to the manufacturer's instructions (BIAcore). The respective 4D10hum antibody was captured on the goat anti-human IgG Fc coated surface of the chip by injecting 5.0 μl of a 1 μg/ml 4D10hum antibody solution at a flow rate of 10-15 μl/min. Interaction of soluble Aβ(20-42) globulomer with the 4D10hum antibody on the sensor chip was examined by injecting globulomer solutions (concentration range: 20-0.3125 nM) at a flow rate of 50 μl/min. The association rate was monitored for 5.0 min and the dissociation rate was monitored for 10 min. From the resulting sensorgrams the association rate constant (kₒₙ), dissociation rate constant (koff) and equilibrium dissociation constant (KD) were determined using to the manufacturer's software and instructions. The kinetic and equilibrium constants determined for three different preparations of 4D10hum#1 and two different preparations of 4D10hum#2 are summarized in table 7. […] The heavy chains of antibodies #4 and #5 are as in 4D10hum#1 or #2, and the light chains are chimeras of m4D10 VL (SEQ ID NO:24) and the human Ig kappa constant region (SEQ ID NO:27). The light chains of antibody #3 are as in 4D10hum#1 and #2, and the heavy chains are chimeras of m4D10 VH (SEQ ID NO23) and the human Ig gamma-1 constant region (SEQ ID NO:25).

Assay [8] has as its target T3, Aβ(20-42) globulomer. Put plainly: SPR (BIAcore); antibody captured on goat anti-human IgG Fc, soluble globulomer injected; lot #1773659, average. The procedure:
as §4

Assay [9] addresses T3, Aβ(20-42) globulomer. Put plainly: SPR (BIAcore); antibody captured on goat anti-human IgG Fc, soluble globulomer injected; lot #1759119, experiment 1. The procedure: as §4
(In SPR one partner is held on a chip, and binding of the other changes the refractive index at the surface.)

The target of assay [10] is T3, Aβ(20-42) globulomer. Put plainly: SPR (BIAcore); antibody captured on goat anti-human IgG Fc, soluble globulomer injected; lot #1759119, experiment 2. The procedure:
as §4

Assay [11] deals with T3, Aβ(20-42) globulomer. Put plainly: SPR (BIAcore); antibody captured on goat anti-human IgG Fc, soluble globulomer injected; lot #1773659, experiment 1. The procedure: as §4
Assay [12] deals with T3, Aβ(20-42) globulomer. Put plainly: SPR (BIAcore); antibody captured on goat anti-human IgG Fc, soluble globulomer injected; lot #1773659, experiment 2. How it is done:
as §4

In assay [13] the target is T3, Aβ(20-42) globulomer. The experiment in a line: SPR (BIAcore); antibody captured on goat anti-human IgG Fc, soluble globulomer injected; average. How it is done: as §4
Assay [14] deals with T3, Aβ(20-42) globulomer. The experiment in a line: SPR (BIAcore); antibody captured on goat anti-human IgG Fc, soluble globulomer injected; experiment 1. How it is done: as §4
Assay [15] concerns the target T3, Aβ(20-42) globulomer. Put plainly: SPR (BIAcore); antibody captured on goat anti-human IgG Fc, soluble globulomer injected; experiment 2. The procedure:
as §4

Assay [16] concerns the target T2, human platelet factor 4 (PF-4) in …. Put plainly: sandwich ELISA (R2), HPF4-spiked human plasma; AUC of reference anti-HPF4 antibody (ab49735) against AUC of this antibody.
For assay [17] the target is unchanged. The experiment in a line: aligned sandwich ELISA (R4), HPF4-spiked human plasma; AUC of reference anti-HPF4 antibody (ab49735) against AUC of this antibody.

Bounds are passed on as bounds.

B1: humanized monoclonal anti-Aβ antibody 4D10hum#1 (antibody, human IgG1, kappa, V domains shown)
VH: EVQLVESGGGLVQPGGSLRLSCAVSGFTLSSYGVHWVRQAPGKGLEWLGVIWRGGRIDYNAAFMSRLTISKDNSKSTVYLQMNSLRAEDTAVYYCARNSDVWGQGTTVTVSS
VL: DVVMTQTPLSLPVTPGQPASISCKSSQSLLDIDGKTYLNWLLQKPGQSPQRLIYLVSKLDSGVPDRFSGSGSGTDFTLKISRVEAEDVGVYYCWQGTHFPYTFGQGTKLEIKR
notes: also called mAb 4D10hum#1; mAb 4D10 hum#1
B1: the “Ratio HPF4/aAβ antibody” value worked out at 64 in assay [1], 30 in [2], 158 in [4] and 23 in [5]. The binding result in [3] is on record as “no binding (tested: plasma dilution 1:3.16)”.

B2: humanized monoclonal anti-Aβ antibody 4D10hum#2 (antibody, human IgG1, kappa, V domains shown)
VH: EVQLQESGPGLVKPSETLSLTCTVSGFSLSSYGVHWVRQPPGKGLEWLGVIWRGGRIDYNAAFMSRLTISKDTSKSQVSLKLSSVTAADTAVYYCARNSDVWGQGTTVTVSS
VL: B1 VL
notes: also called mAb 4D10hum#2; mAb 4D10 hum#2
As to B2, the “Ratio HPF4/aAβ antibody” value in assay [6] was over 158; in assay [1] it was 36; in assay [2] it was 17; in assay [5] it was 75. Further, the Kd with Aβ(20-42) globulomer [7] amounted to 532 pM; with Aβ(20-42) globulomer [8], 482 pM; with Aβ(20-42) globulomer [9], 454 pM; with Aβ(20-42) globulomer [10], 609 pM; with Aβ(20-42) globulomer [11], 529 pM; with Aβ(20-42) globulomer [12], 435 pM. Also, the koff was 0.000301 s⁻¹ in the assay with Aβ(20-42) globulomer [7]; 0.000283 s⁻¹ with Aβ(20-42) globulomer [8]; 0.00027 s⁻¹ with Aβ(20-42) globulomer [9]; 0.000332 s⁻¹ with Aβ(20-42) globulomer [10]; 0.000268 s⁻¹ with Aβ(20-42) globulomer [11]; 0.000298 s⁻¹ with Aβ(20-42) globulomer [12]. Further, the kon worked out at 570000 M⁻¹ s⁻¹ with Aβ(20-42) globulomer [7]; 597000 M⁻¹ s⁻¹ with Aβ(20-42) globulomer [8]; 593000 M⁻¹ s⁻¹ with Aβ(20-42) globulomer [9]; 546000 M⁻¹ s⁻¹ with Aβ(20-42) globulomer [10]; 507000 M⁻¹ s⁻¹ with Aβ(20-42) globulomer [11]; 686000 M⁻¹ s⁻¹ with Aβ(20-42) globulomer [12]. In addition, in assay [3], the binding result is “no binding (tested: plasma dilution 1:3.16)”.

B3: 4D10#3 (chimeric heavy chain; light chain as 4D10hum#1 and #2) (antibody, human IgG1, kappa, V domains shown)
VH: QVQLKQSGPSLIQPSQSLSITCTVSGFSLTSYGVHWVRQSPGKGLEWLGVIWRGGRIDYNAAFMSRLSITKDNSKSQVFFKMNSLQADDTAIYYCARNSDVWGTGTTVTVSS
VL: B1 VL
notes: Heavy chain is a chimera of m4D10 VH and the human Ig gamma-1 constant region; light chain is the humanized one; also called antibody #3
In the assay with Aβ(20-42) globulomer [13], B3 came in with a Kd of 597 pM, an off-rate (koff) of 0.000333 s⁻¹ and an on-rate constant (kon) of 563000 M⁻¹ s⁻¹. For the same molecule, in the assay with Aβ(20-42) globulomer [14], binding was characterised by a dissociation constant (Kd) of 525 pM, the off-rate constant (koff) was found to be 0.000317 s⁻¹ and the on-rate (kon) is 603000 M⁻¹ s⁻¹. In the assay with Aβ(20-42) globulomer [15], this molecule yielded a dissociation constant (Kd) of 669 pM, a koff of 0.000349 s⁻¹ and a kon of 522000 M⁻¹ s⁻¹.

B4: 4D10#4 (heavy chain as 4D10hum#1; chimeric light chain) (antibody, human IgG1, kappa, V domains shown)
VH: B1 VH
VL: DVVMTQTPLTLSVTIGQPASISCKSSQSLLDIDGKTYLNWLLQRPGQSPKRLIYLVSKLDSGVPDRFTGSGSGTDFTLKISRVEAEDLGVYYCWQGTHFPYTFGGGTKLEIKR
notes: Light chain is a chimera of m4D10 VL and the human Ig kappa constant region; also called antibody #4
Regarding B4, the values for the Kd with Aβ(20-42) globulomer [13], with Aβ(20-42) globulomer [14] and with Aβ(20-42) globulomer [15] were 646 pM, 635 pM and 657 pM, respectively. The off-rate (koff) in the assay with Aβ(20-42) globulomer [13] turned out to be 0.000313 s⁻¹; with Aβ(20-42) globulomer [14], 0.000294 s⁻¹; in the assay with Aβ(20-42) globulomer [15] it was 0.000332 s⁻¹. Besides, the association rate constant (kon) came out at 484000 M⁻¹ s⁻¹ with Aβ(20-42) globulomer [13], 462000 M⁻¹ s⁻¹ in the assay with Aβ(20-42) globulomer [14] and 506000 M⁻¹ s⁻¹ in the assay with Aβ(20-42) globulomer [15].

B5: 4D10#5 (heavy chain as 4D10hum#2; chimeric light chain) (antibody, human IgG1, kappa, V domains shown)
VH: B2 VH
VL: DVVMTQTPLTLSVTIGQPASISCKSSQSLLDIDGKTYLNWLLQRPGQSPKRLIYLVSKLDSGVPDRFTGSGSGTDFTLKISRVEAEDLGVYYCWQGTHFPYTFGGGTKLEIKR
notes: Light chain is a chimera of m4D10 VL and the human Ig kappa constant region; also called antibody #5
In the assay with Aβ(20-42) globulomer [13], B5 had an equilibrium dissociation constant (Kd) of 575 pM, a koff of 0.000277 s⁻¹ and a kon of 483000 M⁻¹ s⁻¹. For the same molecule, in the assay with Aβ(20-42) globulomer [14], the Kd was found to be 530 pM, the off-rate (koff) is 0.000262 s⁻¹ and the on-rate (kon) was 494000 M⁻¹ s⁻¹. Besides, in the assay with Aβ(20-42) globulomer [15], the Kd was 619 pM, the koff amounted to 0.000292 s⁻¹ and the on-rate constant (kon) turned out to be 472000 M⁻¹ s⁻¹.

B6: anti-Aβ monoclonal antibody clone m4D10 (antibody, V domains shown)
VH: B3 VH
VL: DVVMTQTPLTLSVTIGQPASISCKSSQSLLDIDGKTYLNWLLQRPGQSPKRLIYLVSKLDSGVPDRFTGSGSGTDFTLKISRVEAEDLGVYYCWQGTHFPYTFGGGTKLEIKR
notes: Murine monoclonal antibody; also called mAb m4D10; murine 4D10
In the case of B6, the “Ratio HPF4/aAβ antibody” value in [16] worked out at 21; in assay [17], 27.

As a reminder, the Kd is the equilibrium constant for the complex coming apart. As a reminder, the koff is the first-order rate constant of dissociation. The term kon denotes the rate constant with which the complex forms.

Source of the values: patent US20150218261A1 (AbbVie / Abbott, published 2015).
